# Assay results as given in paper doi:10.1101/2020.04.14.041046.
# Biological target: actin filaments (rabbit skeletal muscle actin) (rabbit) (UniProt P68135)
# Assay: co-sedimentation
Substance,stoichiometry N,Kd
Rng2CHD fused with GFP to its N-terminus via a 16-residue linker (GFP-Rng2CHD) (domain or fragment),1,–
calponin-homology actin binding domain of fission yeast IQGAP Rng2 (Rng2CHD) (domain or fragment),–,920 nM
